B1: Pistol ribozyme (parent)
chain: GGGUCGUUGUUCCAUAAUCGCGUGGAUAUGGCACGCAAGUUUCUACCGGGCACCGUAAAUGUCCGACUGGAGCCGUUCGGGCGGCUAUAAACAGACCUCAGGCCCGAAGCGUGGCGGCACCUGCCGCCGGUGGUAAAAAAGAUCGGAAGAGCACACGUCU

Variants of: B1
Assay: aptazyme ON/OFF ratio, guanine; higher = stronger switching; co-transcriptional cleavage with and without guanine

| Variant | aptazyme ON/OFF ratio |
| --- | --- |
| GGGUCGUGUGUGUAUAAUCGCGUGGAUAUGGCACGCAAGUUUCUACCGGGCACCGUAAAUGUCCGACUGGAGCCGUUCGGGCGGCUAUAAACAGACCUCAGGCCCGAAGCGUGGCGGCACCUGCCGCCGGUGGUAAAAAAGAUCGGAAGAGCACACGUCU | 1.02 |
| GGGUCGUGUGUGAAUAAUCGCGUGGAUAUGGCACGCAAGUUUCUACCGGGCACCGUAAAUGUCCGACUGGAGCCGUUCGGGCGGCUAUAAACAGACCUCAGGCCCGAAGCGUGGCGGCACCUGCCGCCGGUGGUAAAAAAGAUCGGAAGAGCACACGUCU | 1.02 |
| GGGUCGUGUGUGGAUAAUCGCGUGGAUAUGGCACGCAAGUUUCUACCGGGCACCGUAAAUGUCCGACUGGAGCCGUUCGGGCGGCUAUAAACAGACCUCAGGCCCGAAGCGUGGCGGCACCUGCCGCCGGUGGUAAAAAAGAUCGGAAGAGCACACGUCU | 1.05 |
| GGGUCGUGUGUAAAUAAUCGCGUGGAUAUGGCACGCAAGUUUCUACCGGGCACCGUAAAUGUCCGACUGGAGCCGUUCGGGCGGCUAUAAACAGACCUCAGGCCCGAAGCGUGGCGGCACCUGCCGCCGGUGGUAAAAAAGAUCGGAAGAGCACACGUCU | 1.03 |
| GGGUCGUGUGUAUAUAAUCGCGUGGAUAUGGCACGCAAGUUUCUACCGGGCACCGUAAAUGUCCGACUGGAGCCGUUCGGGCGGCUAUAAACAGACCUCAGGCCCGAAGCGUGGCGGCACCUGCCGCCGGUGGUAAAAAAGAUCGGAAGAGCACACGUCU | 1.05 |
| GGGUCGUGUGUAGAUAAUCGCGUGGAUAUGGCACGCAAGUUUCUACCGGGCACCGUAAAUGUCCGACUGGAGCCGUUCGGGCGGCUAUAAACAGACCUCAGGCCCGAAGCGUGGCGGCACCUGCCGCCGGUGGUAAAAAAGAUCGGAAGAGCACACGUCU | 1.04 |
| GGGUCGUGUCCCAAUAAUCGCGUGGAUAUGGCACGCAAGUUUCUACCGGGCACCGUAAAUGUCCGACUGGAGCCGUUCGGGCGGCUAUAAACAGACCUCAGGCCCGAAGCGUGGCGGCACCUGCCGCCGGUGGUAAAAAAGAUCGGAAGAGCACACGUCU | 1.04 |
| GGGUCGUGUCCCUAUAAUCGCGUGGAUAUGGCACGCAAGUUUCUACCGGGCACCGUAAAUGUCCGACUGGAGCCGUUCGGGCGGCUAUAAACAGACCUCAGGCCCGAAGCGUGGCGGCACCUGCCGCCGGUGGUAAAAAAGAUCGGAAGAGCACACGUCU | 1.02 |
| GGGUCGUGUCCCGAUAAUCGCGUGGAUAUGGCACGCAAGUUUCUACCGGGCACCGUAAAUGUCCGACUGGAGCCGUUCGGGCGGCUAUAAACAGACCUCAGGCCCGAAGCGUGGCGGCACCUGCCGCCGGUGGUAAAAAAGAUCGGAAGAGCACACGUCU | 1.04 |
| GGGUCGUGUCGACAUAAUCGCGUGGAUAUGGCACGCAAGUUUCUACCGGGCACCGUAAAUGUCCGACUGGAGCCGUUCGGGCGGCUAUAAACAGACCUCAGGCCCGAAGCGUGGCGGCACCUGCCGCCGGUGGUAAAAAAGAUCGGAAGAGCACACGUCU | 1.12 |
| GGGUCGUGUCGGCAUAAUCGCGUGGAUAUGGCACGCAAGUUUCUACCGGGCACCGUAAAUGUCCGACUGGAGCCGUUCGGGCGGCUAUAAACAGACCUCAGGCCCGAAGCGUGGCGGCACCUGCCGCCGGUGGUAAAAAAGAUCGGAAGAGCACACGUCU | 1.25 |
| GGGUCGUGUCGUCAUAAUCGCGUGGAUAUGGCACGCAAGUUUCUACCGGGCACCGUAAAUGUCCGACUGGAGCCGUUCGGGCGGCUAUAAACAGACCUCAGGCCCGAAGCGUGGCGGCACCUGCCGCCGGUGGUAAAAAAGAUCGGAAGAGCACACGUCU | 1.19 |
| GGGUCGUGUCGCAAUAAUCGCGUGGAUAUGGCACGCAAGUUUCUACCGGGCACCGUAAAUGUCCGACUGGAGCCGUUCGGGCGGCUAUAAACAGACCUCAGGCCCGAAGCGUGGCGGCACCUGCCGCCGGUGGUAAAAAAGAUCGGAAGAGCACACGUCU | 1.04 |
| GGGUCGUGUCGCGAUAAUCGCGUGGAUAUGGCACGCAAGUUUCUACCGGGCACCGUAAAUGUCCGACUGGAGCCGUUCGGGCGGCUAUAAACAGACCUCAGGCCCGAAGCGUGGCGGCACCUGCCGCCGGUGGUAAAAAAGAUCGGAAGAGCACACGUCU | 1.03 |
| GGGUCGUGUCGCUAUAAUCGCGUGGAUAUGGCACGCAAGUUUCUACCGGGCACCGUAAAUGUCCGACUGGAGCCGUUCGGGCGGCUAUAAACAGACCUCAGGCCCGAAGCGUGGCGGCACCUGCCGCCGGUGGUAAAAAAGAUCGGAAGAGCACACGUCU | 1.03 |
| GGGUCGUGUGUCCAUAAUCGCGUGGAUAUGGCACGCAAGUUUCUACCGGGCACCGUAAAUGUCCGACUGGAGCCGUUCGGGCGGCUAUAAACAGACCUCAGGCCCGAAGCGUGGCGGCACCUGCCGCCGGUGGUAAAAAAGAUCGGAAGAGCACACGUCU | 1.07 |
| GGGUCGUGUCGGUAUAAUCGCGUGGAUAUGGCACGCAAGUUUCUACCGGGCACCGUAAAUGUCCGACUGGAGCCGUUCGGGCGGCUAUAAACAGACCUCAGGCCCGAAGCGUGGCGGCACCUGCCGCCGGUGGUAAAAAAGAUCGGAAGAGCACACGUCU | 1.08 |
| GGGUCGUGUCGGGAUAAUCGCGUGGAUAUGGCACGCAAGUUUCUACCGGGCACCGUAAAUGUCCGACUGGAGCCGUUCGGGCGGCUAUAAACAGACCUCAGGCCCGAAGCGUGGCGGCACCUGCCGCCGGUGGUAAAAAAGAUCGGAAGAGCACACGUCU | 1.14 |

| Variant | aptazyme ON/OFF ratio |
| --- | --- |
| GGGUCGUGUCGGAAUAAUCGCGUGGAUAUGGCACGCAAGUUUCUACCGGGCACCGUAAAUGUCCGACUGGAGCCGUUCGGGCGGCUAUAAACAGACCUCAGGCCCGAAGCGUGGCGGCACCUGCCGCCGGUGGUAAAAAAGAUCGGAAGAGCACACGUCU | 1.15 |
| GGGUCGUGUGUUUAUAAUCGCGUGGAUAUGGCACGCAAGUUUCUACCGGGCACCGUAAAUGUCCGACUGGAGCCGUUCGGGCGGCUAUAAACAGACCUCAGGCCCGAAGCGUGGCGGCACCUGCCGCCGGUGGUAAAAAAGAUCGGAAGAGCACACGUCU | 1.06 |
| GGGUCGUGUGUUAAUAAUCGCGUGGAUAUGGCACGCAAGUUUCUACCGGGCACCGUAAAUGUCCGACUGGAGCCGUUCGGGCGGCUAUAAACAGACCUCAGGCCCGAAGCGUGGCGGCACCUGCCGCCGGUGGUAAAAAAGAUCGGAAGAGCACACGUCU | 1.03 |
| GGGUCGUGUGUUGAUAAUCGCGUGGAUAUGGCACGCAAGUUUCUACCGGGCACCGUAAAUGUCCGACUGGAGCCGUUCGGGCGGCUAUAAACAGACCUCAGGCCCGAAGCGUGGCGGCACCUGCCGCCGGUGGUAAAAAAGAUCGGAAGAGCACACGUCU | 1.02 |
| GGGUCGUGUCGAGAUAAUCGCGUGGAUAUGGCACGCAAGUUUCUACCGGGCACCGUAAAUGUCCGACUGGAGCCGUUCGGGCGGCUAUAAACAGACCUCAGGCCCGAAGCGUGGCGGCACCUGCCGCCGGUGGUAAAAAAGAUCGGAAGAGCACACGUCU | 1.11 |
| GGGUCGUGUCGAAAUAAUCGCGUGGAUAUGGCACGCAAGUUUCUACCGGGCACCGUAAAUGUCCGACUGGAGCCGUUCGGGCGGCUAUAAACAGACCUCAGGCCCGAAGCGUGGCGGCACCUGCCGCCGGUGGUAAAAAAGAUCGGAAGAGCACACGUCU | 1.14 |
| GGGUCGUGUCGAUAUAAUCGCGUGGAUAUGGCACGCAAGUUUCUACCGGGCACCGUAAAUGUCCGACUGGAGCCGUUCGGGCGGCUAUAAACAGACCUCAGGCCCGAAGCGUGGCGGCACCUGCCGCCGGUGGUAAAAAAGAUCGGAAGAGCACACGUCU | 1.12 |
| GGGUCGUGUCGCCAUAAUCGCGUGGAUAUGGCACGCAAGUUUCUACCGGGCACCGUAAAUGUCCGACUGGAGCCGUUCGGGCGGCUAUAAACAGACCUCAGGCCCGAAGCGUGGCGGCACCUGCCGCCGGUGGUAAAAAAGAUCGGAAGAGCACACGUCU | 1.15 |
| GGGUCGUGUGUCAAUAAUCGCGUGGAUAUGGCACGCAAGUUUCUACCGGGCACCGUAAAUGUCCGACUGGAGCCGUUCGGGCGGCUAUAAACAGACCUCAGGCCCGAAGCGUGGCGGCACCUGCCGCCGGUGGUAAAAAAGAUCGGAAGAGCACACGUCU | 1.04 |
| GGGUCGUGUGUCUAUAAUCGCGUGGAUAUGGCACGCAAGUUUCUACCGGGCACCGUAAAUGUCCGACUGGAGCCGUUCGGGCGGCUAUAAACAGACCUCAGGCCCGAAGCGUGGCGGCACCUGCCGCCGGUGGUAAAAAAGAUCGGAAGAGCACACGUCU | 1.04 |
| GGGUCGUGUGUCGAUAAUCGCGUGGAUAUGGCACGCAAGUUUCUACCGGGCACCGUAAAUGUCCGACUGGAGCCGUUCGGGCGGCUAUAAACAGACCUCAGGCCCGAAGCGUGGCGGCACCUGCCGCCGGUGGUAAAAAAGAUCGGAAGAGCACACGUCU | 1.03 |
| GGGUCGUGUGUACAUAAUCGCGUGGAUAUGGCACGCAAGUUUCUACCGGGCACCGUAAAUGUCCGACUGGAGCCGUUCGGGCGGCUAUAAACAGACCUCAGGCCCGAAGCGUGGCGGCACCUGCCGCCGGUGGUAAAAAAGAUCGGAAGAGCACACGUCU | 1.04 |
| GGGUCGUGUGUGCAUAAUCGCGUGGAUAUGGCACGCAAGUUUCUACCGGGCACCGUAAAUGUCCGACUGGAGCCGUUCGGGCGGCUAUAAACAGACCUCAGGCCCGAAGCGUGGCGGCACCUGCCGCCGGUGGUAAAAAAGAUCGGAAGAGCACACGUCU | 1.02 |
| GGGUCGUGUGUUCAUAAUCGCGUGGAUAUGGCACGCAAGUUUCUACCGGGCACCGUAAAUGUCCGACUGGAGCCGUUCGGGCGGCUAUAAACAGACCUCAGGCCCGAAGCGUGGCGGCACCUGCCGCCGGUGGUAAAAAAGAUCGGAAGAGCACACGUCU | 1.02 |
| GGGUCGUGUCGUAAUAAUCGCGUGGAUAUGGCACGCAAGUUUCUACCGGGCACCGUAAAUGUCCGACUGGAGCCGUUCGGGCGGCUAUAAACAGACCUCAGGCCCGAAGCGUGGCGGCACCUGCCGCCGGUGGUAAAAAAGAUCGGAAGAGCACACGUCU | 1.09 |
| GGGUCGUGUCGUUAUAAUCGCGUGGAUAUGGCACGCAAGUUUCUACCGGGCACCGUAAAUGUCCGACUGGAGCCGUUCGGGCGGCUAUAAACAGACCUCAGGCCCGAAGCGUGGCGGCACCUGCCGCCGGUGGUAAAAAAGAUCGGAAGAGCACACGUCU | 1.24 |
| GGGUCGUGUCGUGAUAAUCGCGUGGAUAUGGCACGCAAGUUUCUACCGGGCACCGUAAAUGUCCGACUGGAGCCGUUCGGGCGGCUAUAAACAGACCUCAGGCCCGAAGCGUGGCGGCACCUGCCGCCGGUGGUAAAAAAGAUCGGAAGAGCACACGUCU | 1.09 |
| GGGUCGUGUCCUUAUAAUCGCGUGGAUAUGGCACGCAAGUUUCUACCGGGCACCGUAAAUGUCCGACUGGAGCCGUUCGGGCGGCUAUAAACAGACCUCAGGCCCGAAGCGUGGCGGCACCUGCCGCCGGUGGUAAAAAAGAUCGGAAGAGCACACGUCU | 1.06 |

Reference: the RNAGym collection of RNA variant scans (doi:10.1021/acssynbio.7b00057)
